Experimental data as given in paper PMC7809101, “Fetal bovine serum albumin inhibits antimicrobial peptide activity and binds drug only in complex with α1-antitrypsin” (Scientific Reports, 2021).

Key:
[1] = test system: Escherichia coli K-12 (MG1655); assay: Antimicrobial (bactericidal) activity against E. coli, effect of serum or serum proteins; format: cell-based; conditions: 5% (v/v) FBS in PBS, 37 °C; remaining viable cells (cfu)
Description: The Gram-negative bacteria Escherichia coli K-12 (MG1655) was cultured and plated in/on Luria–Bertani broth/agar plate (Merck Millipore, Darmstadt, Germany). The Gram-positive Staphylococcus aureus (ATCC 6538P) was cultured and plated in tryptic soy broth/agar (BD, MD, USA). The fungus Candida albicans (ATCC 14,053) was cultured and plated in YM broth/agar (BD, MD, USA). The bacteria were grown overnight, washed, and diluted 1:2000 in phosphate buffered saline (PBS), pH 7.5 or DMEM (Life Biotech, California, USA), pH 7.4. Bacteria (ca. 1 × 10^6 colony-forming units, cfu) were mixed with antimicrobial peptides (AMP) in 100 μl PBS and incubated at 37 °C (for bacteria) and at 30 °C (for fungus). Serial dilutions of each AMP-treated bacteria in PBS/DMEM supplemented with FBS were prepared and plated for the determination of remaining viable cells (expressed as cfu). At least three independent experiments were performed for each assay to determine the average value with standard deviation. MBC was defined as the lowest AMP concentration that kills 99.9% of the original inoculum.

fetal bovine serum (FBS) = assay: Band shift of AMPs by fetal bovine serum; format: binding; conditions: 10–40% FBS; AMP 4 μg; PC buffer, room temperature, 30 min; horizontal native 8% PAGE
Description: (§1) Various AMPs (4 μg each) were incubated with fetal bovine serum (FBS) components at room temperature in 10 μl PC buffer for 30 min and subjected to horizontal native 8% PAGE, pH8.0 or pH8.8, and Coomassie Blue staining.

[2] = biological target: T1, protein D (albumin and α1-antitrypsin complex) (Bos taurus, UniProt P02769+P34955); assay: Band shift of AMPs by protein D; format: binding, bovine; conditions: AMP 4 μg; protein 10 μg (Suppl. Fig. 3a); PC buffer, room temperature, 30 min; 8% horizontal native PAGE
T1 construct: The active components were further purified by fast performance liquid chromatography (FPLC) Mono Q and S12 column chromatography from the 70% saturated fraction; from tissue; host or cells: fetal bovine serum (70% ammonium sulfate fraction, FPLC Mono Q and Superose 12)
T1 sequence (P02769 25-607, one chain of several): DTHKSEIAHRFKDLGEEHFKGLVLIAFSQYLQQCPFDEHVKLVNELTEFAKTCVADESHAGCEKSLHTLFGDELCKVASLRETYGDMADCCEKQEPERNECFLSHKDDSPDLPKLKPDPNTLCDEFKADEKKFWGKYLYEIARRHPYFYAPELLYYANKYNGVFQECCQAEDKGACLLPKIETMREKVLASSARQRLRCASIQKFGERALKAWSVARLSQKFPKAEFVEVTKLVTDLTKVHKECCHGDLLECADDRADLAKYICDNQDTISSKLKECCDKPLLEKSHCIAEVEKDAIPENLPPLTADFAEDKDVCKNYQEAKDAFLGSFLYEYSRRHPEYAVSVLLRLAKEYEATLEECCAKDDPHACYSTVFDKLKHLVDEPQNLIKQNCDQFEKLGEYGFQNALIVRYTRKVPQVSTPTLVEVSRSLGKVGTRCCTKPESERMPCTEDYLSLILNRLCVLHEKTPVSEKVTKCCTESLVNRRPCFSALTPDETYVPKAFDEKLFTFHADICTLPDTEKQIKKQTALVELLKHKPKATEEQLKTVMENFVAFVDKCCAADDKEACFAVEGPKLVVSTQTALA

Apo-AI = conditions: cited from earlier work
Text: In addition to protein D, the serum protein apolipoprotein AI (Apo-AI) was also pulled down from crude fetal bovine serum by immobilized TP4-A12I,A15I, but in a less amount (Fig. 2a). The Apo-AI with Mr = 28,080 Da is the major constituent of high-density lipoprotein (HDL), which is involved in the removal of cholesterol from peripheral tissues and its catabolism. […] The amount of Apo-A1 in fetal bovine serum was much less than that of protein D (Fig. 8a, b). Int ...

[3] = biological target: T2, protein B (α1-antitrypsin) (Bos taurus, UniProt P34955); assay: Band shift of AMPs by protein B; format: binding, bovine; parameters: The homogeneities of collected protein A (albumin), protein B (α1-antitrypsin), protein C (serotransferrin) and protein D complex; from tissue; host or cells: fetal bovine serum (70% ammonium sulfate fraction, FPLC Mono Q); conditions: AMP 4 μg; protein 10 μg (Suppl. Fig. 3a); PC buffer, room temperature, 30 min; 8% horizontal native PAGE
T2 sequence (P34955 25-416): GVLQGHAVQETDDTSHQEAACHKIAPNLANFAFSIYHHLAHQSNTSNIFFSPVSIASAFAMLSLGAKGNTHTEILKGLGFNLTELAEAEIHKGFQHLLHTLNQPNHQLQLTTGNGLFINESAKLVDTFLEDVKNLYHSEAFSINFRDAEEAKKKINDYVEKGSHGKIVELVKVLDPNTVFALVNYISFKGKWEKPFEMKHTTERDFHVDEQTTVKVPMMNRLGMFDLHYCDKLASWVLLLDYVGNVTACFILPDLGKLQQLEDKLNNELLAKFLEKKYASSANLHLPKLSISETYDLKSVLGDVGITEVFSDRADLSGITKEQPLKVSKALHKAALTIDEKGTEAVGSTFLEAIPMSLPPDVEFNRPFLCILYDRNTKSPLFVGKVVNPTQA
Description: as §1

Q: For “LL37: human AMP LL37 [reference compound]”, which “effect of FBS on antimicrobial activity against E. coli” value [1] is on record?
A: serum-mediated repression

Q: And the “mobility of AMP in band shift assay with FBS” value (fetal bovine serum (FBS))?
A: retarded

Q: What about the “binding to protein D (band shift)” value [2] of the same substance?
A: also bound by protein D

Q: And the “effect of Apo-AI on antimicrobial and cytotoxic activities” value (Apo-AI)?
A: inhibits its antimicrobial and cytotoxic activities

Q: What about the “binding to protein B (band shift)” value [3] of the same substance?
A: not by protein A and protein B
